Data: US12662530

Columns and labels:
[1] = target: human recombinant adrenomedullin receptor (CRLR+RAMP3) (human)
[2] = target: human recombinant adrenomedullin receptor (CRLR+RAMP3) (human); remark: listed apart in the source

IC50 (read off the curve), inhibition of cAMP stimulation by 0.67 nM mADM [1]: 2000 nM | IC50 (read off the curve), inhibition of cAMP stimulation by 5.63 nM hADM [2]: 200 nM
Substance: human ADM 22-52 (from UniProt P35318) (peptide)
